Assay [1] deals with T1, tPA (Homo sapiens, UniProt P00750).
T1 construct: purchased Boehringer-Ingelheim (Actilyse, Alteplase)
The experiment in a line: tPA binding assay with immobilized biopharmaceuticals in an ELISA. The settings on record: therapeutic coated 1:10; one-site binding fit. The method, then:
Nunc Immobilizer plates (Nalge Nunc, #436013, Rochester, N.Y., USA) were coated with 50 μL containing 5 μg/mL of sample protein (unless indicated otherwise) in 100 mM NaHCO3, pH 9.6, 0.05% m/v NaN3 for 1 hour at room temperature. Plates were washed twice with Tris buffered saline pH 7.2 containing 0.1% Tween20 (TBST) and blocked with PBS containing 1% Tween20 for 1 hour at room temperature. […] Plates were washed five times with TBST and incubated with peroxidase labeled anti-mouse immunoglobulins (RAMPO; DAKOCytomation, Glostrup, Denmark) diluted 1:3000 in PBST for 30 minutes at room temperature. Plates were washed five times with PBS 0.1% Tween20, and stained with 100 μL/well of tetramethyl-benzidine (TMB) substrate (Biosource Europe, Nivelles, Belgium). The reaction was terminated with 50 μL/well of 2 M H2SO4 and substrate conversion was read at 450 nm on a Spectramax340 microplate reader. Curves were fitted with a one-site binding model (GraphPad Prism version 4.02 for Windows, Graphpad Software, CA, USA) from which Kd and Bmax were determined.
Protein therapeutics were obtained from the local hospital pharmacy and analyzed within the expiry limits as stated by the manufacturers.
For orientation: ELISA stands for enzyme-linked immunosorbent assay.

In assay [2] the test system is human tissue-type plasminogen activator finger EGF (tPA F-EGF) fragment. The assay can be described thus: ELISA, binding of tPA F-EGF to coated (mis)folded proteins. The settings on record: coated protein, FIG. 7A, I; listed as BSA-AGE. How it is done:
The plates were blocked using Blocking reagent (Roche 1112589). A dilution series of the protein of interest was applied to the coated proteins and wells were subsequently washed using TBS-T (50 mM Tris pH 7.3, 150 mM NaCl and 0.1% Tween20). Bound protein is detected by the FLAG-tag using 1:3000 anti-FLAG-HRP (Sigma A-8592) in PBS-T, or by 1:1000 Ni-NTA-HRP (Qiagen 34530) in PBS-T. The HRP reaction Is performed using the TMB substrate (Biosource 4501103 or Tebu Bio 101TMB100-500), stopped using 10% H2SO4 and absorbance was measured at 450 nm.

Assay [3] addresses T1, tPA. The assay can be described thus: Biacore surface plasmon resonance, binding to immobilized tPA. The settings on record: Hb-AGE 32, amyloid γ-globulins 62.5, albumin-AGE 3.9 μg ml^−1. How it is done: Binding of cross-β structure conformation containing peptides/proteins was studied using surface plasmon resonance technology with a Biacore 2000 apparatus (Biacore AB, Uppsala, Sweden). A standardized amine coupling procedure was used to couple proteins with F domains to a CM5 chip (Biacore AB, Uppsala, Sweden). First, the dextran surface of the chips was activated by a 35 μl injection with a 1:1 mixture of 0.1 M N-hydroxysuccinimide (NHS) and 0.4 M N-ethyl-N′-(dimethylaminopropyl)carbodiimide (EDC) at a flow rate of 5 μl min.^−1. Then, the proteins were covalently coupled to the activated dextran surface. Remaining activated groups in each of the four flow channels were blocked by injection of 35 μl of 1 M ethanolamine hydrochloride pH 8.5. EDC, NHS and ethanolamine hydrochloride were obtained from Biacore. On one chip, on channels 1 to 4, buffer (reference channel), the soluble extracellular part of receptor for advanced glycation endproducts (sRAGE), tPA and K2P-tPA were immobilized. […] Binding of albumin-AGE was determined with a solution of 3.9 μg ml^−1 albumin-AGE in running buffer. albumin-AGE was filtered on a Millex-GV 0.22 μm filter unit (Millipore). […] Binding of Hb-AGE was also tested after centrifugation for 10 min. at 16,000*g alternative to filtration. tPA activation before and after filtration was assessed with a Plg-activation assay. […]
A general note: In SPR one partner is held on a chip, and binding of the other changes the refractive index at the surface.

“Also recorded” adds a separate entry of the source.

T1 sequence (P00750 36-562): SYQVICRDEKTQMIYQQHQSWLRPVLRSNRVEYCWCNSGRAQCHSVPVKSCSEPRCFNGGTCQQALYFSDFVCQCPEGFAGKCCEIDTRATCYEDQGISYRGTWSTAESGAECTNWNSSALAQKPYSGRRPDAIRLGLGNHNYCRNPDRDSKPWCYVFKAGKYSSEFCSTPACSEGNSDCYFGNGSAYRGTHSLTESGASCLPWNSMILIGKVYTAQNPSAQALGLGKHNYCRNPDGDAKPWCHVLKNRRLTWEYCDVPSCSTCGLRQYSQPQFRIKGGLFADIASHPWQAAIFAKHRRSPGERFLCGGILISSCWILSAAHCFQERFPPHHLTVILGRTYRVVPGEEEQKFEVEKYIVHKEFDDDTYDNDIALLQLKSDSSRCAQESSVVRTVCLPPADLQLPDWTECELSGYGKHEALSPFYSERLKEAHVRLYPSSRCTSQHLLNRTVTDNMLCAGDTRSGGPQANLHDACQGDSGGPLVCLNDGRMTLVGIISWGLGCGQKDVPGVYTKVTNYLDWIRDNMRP
human tissue-type plasminogen activator finger EGF (tPA F-EGF) fragment, sequence (P00750 39-120 limits assumed): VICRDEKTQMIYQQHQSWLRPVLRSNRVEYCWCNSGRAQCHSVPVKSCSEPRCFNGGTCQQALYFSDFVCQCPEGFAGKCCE

With “Abciximab: abciximab, an inhibitor of blood platelet aggregation (ReoPro, Centocor)”, in assay [1], the “tPA Binding Bmax (OD450 nm)” value was 0.5329 OD450 nm.
As for “albumin-AGE: advanced glycation end-product modified bovine serum albumin”, in assay [2], the “binding of tPA F-EGF” value was “High binding affinities; also recorded: high affinity binding”. In assay [3], the “binding to immobilized tPA” value is “bind”.

The values are drawn from patent publication US20080207488A1, “Method for Detecting Peptides Comprising a Cross-B Structure” (priority 2005, published 2008).
